Laboratory results: patent US10584350B2, “Structurally modified COI1” (Board of Trustees of Michigan State University, priority 2016, dated 2020)
Residue numbers refer to the chain shown, from its start. Numbers in names are those of the source.

B1: R409A: COI1 alanine substitution mutant at R409 (protein)
chain: MEDPDIKRCKLSCVATVDDVIEQVMTYITDPKDRDSASLVCRRWFKIDSETREHVTMALCYTATPDRLSRRFPNLRSLKLKGKPRAAMFNLIPENWGGYVTPWVTEISNNLRQLKSVHFRRMIVSDLDLDRLAKARADDLETLKLDKCSGFTTDGLLSIVTHCRKIKTLLMEESSFSEKDGKWLHELAQHNTSLEVLNFYMTEFAKISPKDLETIARNCRSLVSVKVGDFEILELVGFFKAAANLEEFCGGSLNEDIGMPEKYMNLVFPRKLCRLGLSYMGPNEMPILFPFAAQIRKLDLLYALLETEDHCTLIQKCPNLEVLETRNVIGDRGLEVLAQYCKQLKRLRIERGADEQGMEDEEGLVSQRGLIALAQGCQELEYMAVYVSDITNESLESIGTYLKNLCDFALVLLDREERITDLPLDNGVRSLLIGCKKLRRFAFYLRQGGLTDLGLSYIGQYSPNVRWMLLGYVGESDEGLMEFSRGCPNLQKLEMRGCCFSERAIAAAVTKLPSLRYLWVQGYRASMTGQDLMQMARPYWNIELIPSRRVPEVNQQGEIREMEHPAHILAYYSLAGQRTDCPTTVRVLKEPI
B2: COI1A86V: COI1 mutant, alanine 86 substituted with valine (protein)
chain: B1 chain with A86V, A409R
modifications: left off: small tags and cut ends
notes: COI1 mutant, alanine 86 substituted with valine
B3: A384P: COI1 substitution mutant at A384 (protein)
chain: B1 chain with A384P, A409R
B4: A384L: COI1 substitution mutant at A384 (protein)
chain: B1 chain with A384L, A409R
B5: A384N: COI1 substitution mutant at A384 (protein)
chain: B1 chain with A384N, A409R
B6: A384G: COI1 substitution mutant at A384 (protein)
chain: B1 chain with A384G, A409R
B7: COI1A86I: COI1 mutant, alanine 86 substituted with isoleucine (protein)
chain: B1 chain with A86I, A409R
modifications: left off: small tags and cut ends
notes: COI1 mutant, alanine 86 substituted with isoleucine
B8: COI1A384I: COI1 mutant, alanine 384 substituted with isoleucine (protein)
chain: B1 chain with A384I, A409R
modifications: left off: small tags and cut ends
notes: COI1 mutant, alanine 384 substituted with isoleucine
B9: A384D: COI1 substitution mutant at A384 (protein)
chain: B1 chain with A384D, A409R
B10: A384T: COI1 substitution mutant at A384 (protein)
chain: B1 chain with A384T, A409R
B11: A384C: COI1 substitution mutant at A384 (protein)
chain: B1 chain with A384C, A409R
B12: COI1A384S: COI1 mutant, alanine 384 substituted with serine (protein)
chain: B1 chain with A384S, A409R
modifications: left off: small tags and cut ends
notes: COI1 mutant, alanine 384 substituted with serine
B13: R85A: COI1 alanine substitution mutant at R85 (protein)
chain: B1 chain with R85A, A409R
B14: G357: COI1 alanine substitution mutant at G357 (protein, UniProt O04197 1-592, looked up, variant G357A)
Coronatine-insensitive …: B1 chain with G357A, A409R
B15: D354: COI1 alanine substitution mutant at D354 (protein, UniProt O04197 1-592, looked up, variant D354A)
Coronatine-insensitive …: B1 chain with D354A, A409R
B16: R351: COI1 alanine substitution mutant at R351 (protein, UniProt O04197 1-592, looked up, variant R351A)
Coronatine-insensitive …: B1 chain with R351A, A409R

tested on: COI1-JAZ9 interaction; assay: Quantitative liquid Y2H assays (Beta-Glo, RLU); format: cell-based, Arabidopsis; conditions: liquid Y2H, 1 μM COR, yeast
Experimental: (§1) Yeast EGY48 strain carrying the p8Op:LacZ reporter plasmid was co-transformed with pGilda:COI1 (or COI1 mutants) and pB42AD:JAZ9 (or other JAZs) (Clontech). Colonies were selected on SD minimal plates (BD Biosciences) supplemented with the—uracil (U)/-tryptophan (W)/-histidine (H) amino acid drop out solution (Clontech). Yeast colonies were cultured overnight in liquid SD-UWH medium, harvested, washed twice in sterile water, and the absorbance (OD600) of the cultures was adjusted to 0.2 in liquid SD galactose/raffinose-UWH medium (BD Biosciences).
For liquid Y2H assays, cultures were supplemented with designated concentrations of JA-Ile (10 or 30 μM), COR (1 μM), or DMSO. After 16-h incubation with ligands, the liquid cultures were processed through the Beta-Glo Assay system (Promega) for detecting the β-galactosidase activity. […] Protein expression in yeast was detected using anti-LexA antibody (1:5,000; Upstate Biotechnology) for detection of COI1 expression from pGilda vector and anti-HA (1:5,000; Roche Life Science) antibody for detection of JAZ9 expression in pB42AD vector.

Row | Molecule | COR-dependent COI1-JAZ9 interaction
1 | B1 | reduced
2 | B2 | reduced
3 | B3 | completely disrupted
4 | B4 | completely disrupted
5 | B5 | completely disrupted
6 | B6 | completely disrupted
7 | B7 | reduced
8 | B8 | disrupted
9 | B9 | completely disrupted
10 | B10 | completely disrupted
11 | B11 | reduced

same assay, conditions: liquid Y2H, 10 or 30 μM JA-Ile, yeast

Row | Molecule | JA-Ile-dependent COI1-JAZ9 interaction
12 | B1 | reduced
13 | B2 | abolished
14 | B3 | completely disrupted
15 | B4 | completely disrupted
16 | B12 | reduced
17 | B5 | completely disrupted
18 | B6 | completely disrupted
19 | B7 | abolished
20 | B8 | disrupted
21 | B9 | completely disrupted
22 | B10 | completely disrupted
23 | B11 | reduced

same assay, conditions: liquid Y2H, yeast

Row | Molecule | differential effect on JA-Ile-dependent vs COR-dependent COI1-JAZ9 interaction
24 | B13 | affect JAIle-dependent interaction more than COR-dependent interaction

same assay, conditions: yeast; JA-Ile is a mixture of active and inactive isomers, COR pure

Row | Molecule | concentrations equivalent in promoting the COI1-JAZ9 interaction [µM]
25 | CC/C=C\C[C@H]1C(=O)CC[C@@H]1CC(=O)N[C@H](C(=O)O)[C@@H](C)CC [JA-Ile, jasmonoyl-L-isoleucine, reference compound] | 10

tested on: COI1-JAZ9 interaction; assay: Y2H assays on plates for protein-protein interaction; format: cell-based, Arabidopsis; conditions: 10 μM COR, yeast
Experimental: as §1
For Y2H assays on plates, 10-μL culture was spotted onto SD galactose/raffinose-UWH plates with 80 μg/mL X-gal and 10 μM COR (Sigma-Aldrich). Blue color indicated protein-protein interactions after 5-7 days of incubation at 30° C.

Row | Molecule | COR-dependent COI1-JAZ9 interaction
26 | B1 | reduced
27 | B14 | reduced
28 | B15 | reduced
29 | B16 | reduced
